Measured values as given in the supplement of paper PMC9170038.

Test system: MS2 coat protein
Experiment: apparent KD of MS2 coat protein; designed switch direction (-1 OFF switch, 1 ON switch): -1; higher = weaker reporter binding
Summary of the method: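 The buffer was Tris-HCl pH 7.5 with KCl, MgCl2, BSA, DTT, tRNA and Tween-20. In it, SNAP-549-labelled MS2 coat protein was titrated in doubling steps from 0.7 or 1.5 nM to 3 µM over chip-bound RNA switches transcribed by stalled E. coli RNA polymerase on Illumina chips. Apparent KD is the per-design median over clusters of curve fits to normalised fluorescence.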

[1] = input ligand: microRNA oligo, concentration not stated
[2] = Eterna round: R95, input ligand: FMN 200 uM
[3] = Eterna round: R95, input ligand: microRNA oligo, concentration not stated
[4] = Eterna round: R95, input ligand: none

Sequence	apparent KD of MS2 coat protein (input ligand: FMN 200 uM)	apparent KD of MS2 coat protein [1]	apparent KD of MS2 coat protein (input ligand: none)	apparent KD of MS2 coat protein [2]	apparent KD of MS2 coat protein [3]	apparent KD of MS2 coat protein [4]
UAACAUGUCUGAGGAUAUCUGCACGUUUAGUGCAGAGAAGGCAGAACAUGAGGAUCACCCAUGUAGAUCAUUAAUUAAUUAAUU [ENG1/7-B2] (Eterna round: R96, puzzle: Exclusion NG 1)	195 nM	142 nM	194 nM	–	–	–
GGAAUGUAAGGAUAUGCGAAAAGAAGCCGAAGGGAGUCGAAGCAGAAGGUACAUGAGGAUCACCCAUGUAAGGG [AK-MS2ROC-r4-exclusion4-12.1] (Eterna round: R97, puzzle: Exclusion 4)	159 nM	–	700 nM	–	–	–
GAGAAGGUAGGAUAUACGAAUAAAUAGGGUAGUAAGAAGACACAUGAGGAUCACCCAUGUAGAAGGACCAAGAG [Mat - Exclusion 2 - Mod of my Tesla design - D37] (puzzle: Exclusion 2)	–	–	–	34.6 nM	19.2 nM	21.8 nM
CGUGACUCAGGAUAUUCAUAAUAUCACAUGAGGAUCACCCAUGUCCAGCGAAAGCUGGAGGGAGAAGGGAGUCACG [Fiskers Ex 5 - 37] (puzzle: Exclusion 5)	–	–	–	56.7 nM	151 nM	99.6 nM
AGAGCACGAGGAUAUACAAGGAUAACUCGCAGAUCGUCAGUACAUGAGGAUCACCCAUGUAGAAGGUGUUAGCA [Eternabot (Original) Solution 6] (Eterna round: R97, puzzle: Exclusion 2)	41.2 nM	–	58.9 nM	–	–	–
CACCGUUACAGAGGAUAUGGUACAUGAGGAUCACCCAUGUAAUAAAUGAGAAUUUCGGAUGUAUUCCAGAAGGCUGUAAUCGGC [Ostricism 65 - Jieux - Exclusion NG 2] (Eterna round: R96, puzzle: Exclusion NG 2)	74.9 nM	34.1 nM	53.5 nM	–	–	–
AAAUUAGCAAGUAGGUCCGACAUGAGGAUCACCCAUGUAAUCUGAAAUUACGCUGCACGAAAGUGCGCUCGUCUUAG [Sensor-V1 #11] (Eterna round: R97, puzzle: Sensor, turn-off variant 1)	149 nM	–	149 nM	–	–	–
AUUGAUGUUGAGGAUAUGCAUAUAUUUAUACUAGCAGAAGGCGAUACAUGAGGAUCACCCAUGUUCAUGGAAGU [JR_E6_Sub093] (puzzle: Exclusion 6)	–	–	–	39.1 nM	24.7 nM	28 nM
ACAAGCUUUUUGUUCGUCUUAUACACUCCUAAUAGGACAACAUGAGGAUCACCCAUGUAACAAAGACGAACUCAUGU [Sesor Array 9 - Jieux - Sensor v3, turn-off variant 2] (puzzle: Sensor v3, turn-off variant 2)	–	–	–	11.6 nM	169 nM	9.63 nM
ACAUGAGGAUCACCCAUGUGACAAUAAUGGCUGAUACAGAGACAGGAUAUAGGUGCAUAUCUAACCUAGAAGGGUCAUGACUGG [Deportation 72 - Jieux - Exclusion NG 3] (Eterna round: R96, puzzle: Exclusion NG 3)	29.1 nM	30.6 nM	36.6 nM	–	–	–
AUUAUAAAUGUAGGAUAUCUGCACGAUUAGUGCAGAGAAGGACAUGAGGAUCACCCAUGUAGAUCAAUAAUAAUUAAUUUAAUU [ENG1/5-B1] (Eterna round: R96, puzzle: Exclusion NG 1)	184 nM	34 nM	39.8 nM	–	–	–
AGUGUGUGGCAGGAUAUGCAAUUUAUAGGUGAAGCAGAAGGGUCUACAUGAGGAUCACCCAUGUGUGCGGUUGA [Ex6 #20] (Eterna round: R97, puzzle: Exclusion 6)	600 nM	–	188 nM	–	–	–
GUAAAUCAUGUAGGAUAUGCGUGGCGAAGCUAUGCAGAAGGACAUGAGGAUCACCCAUGUGCUUCCGUCUGAGAACAGACGGAG [Mat - Exclusion NG 1 - Mod of JL - D28] (Eterna round: R96, puzzle: Exclusion NG 1)	222 nM	116 nM	244 nM	–	–	–
UAUAUAUAGUAAGGAUAUAUAUUUUUUUUUUAAAUAGAAGGUACAGACAUGAGGAUCACCCAUGUUAUAAUAUGGACAUGUGGA [JMF's Solution 3] (Eterna round: R96, puzzle: Exclusion NG 1)	–	113 nM	–	–	–	–
GAUCCGUUAGGAUAUACAGGAUUCACGCCUGAGUGAAUGUAGUAGAAGGAACAUGAGGAUCACCCAUGUGGUAU [Eternabot (L1) Solution 85] (Eterna round: R97, puzzle: Exclusion 4)	83.2 nM	–	40.5 nM	–	–	–
UCGAGUGCUGAGGAUAUCUGCGAGUAAAGCUCAAGAGAAGGCAGUACAUGAGGAUCACCCAUGUGGAGCCUGUG [EX6 B.27] (Eterna round: R97, puzzle: Exclusion 6)	86.7 nM	–	21.6 nM	–	–	–
CCCAGUUAGAGAGGAUAUCUUACAUGAGGAUCACCCAUGUAAUAAAUGAGGAUUUCGGGUGUCUAAGAGAAGGCUCGGAUAGGC [Ostracism 29 - Jieux - Exclusion NG 2] (Eterna round: R96, puzzle: Exclusion NG 2)	37.9 nM	15.3 nM	26.4 nM	–	–	–

Sequence	apparent KD of MS2 coat protein (input ligand: FMN 200 uM)	apparent KD of MS2 coat protein [1]	apparent KD of MS2 coat protein (input ligand: none)	apparent KD of MS2 coat protein [2]	apparent KD of MS2 coat protein [3]	apparent KD of MS2 coat protein [4]
ACUAGCUUUUUGCAUAUUAGGUUUGUUGCUUCGUAUGUAACAUGAGGAUCACCCAUGUAUUACUGAUGUCGUCGUUU [JR_SV3TOV2_Sub091] (puzzle: Sensor v3, turn-off variant 2)	–	–	–	20 nM	17.3 nM	16.9 nM
AGUACUAACACGAAAGUGUUAGUCCAAUAAGCUUGUGAAACAUGAGGAUCACCCAUGUCCUCAUAAGCUCGUCUUAU [salish99_TOv2_r3_038] (puzzle: Sensor v3, turn-off variant 2)	–	–	–	17.4 nM	454 nM	–
GCGUGACAUGAGGAUCACCCAUGUGAGGAUAUCUGGACACUCUUUAUUUUAGAUGUCCAGAGAAGGCACAUGCU [Ex1-3: 5Z] (puzzle: Exclusion 1)	–	–	–	–	220 nM	–
UAUAUAUAGUAAGGAUAUGUAAUUAUUUUAUACACAGAAGGUACUGACAUGAGGAUCACCCAUGUUUUAGUGUGGGCAUGUAGA [JMF's solution 51] (Eterna round: R96, puzzle: Exclusion NG 1)	–	47.1 nM	–	–	–	–
UUAAGCUUUGAGAUCCUUAACAUGAGGAUCACCCAUGUUCGUCUUAUGAUGGUCUGAUCCCUGAGGAUCGGACCGUU [Mat - Sensor v3 - turn-off var 1 - JL Mod - D3] (puzzle: Sensor v3, turn-off variant 1)	–	–	–	261 nM	22.5 nM	303 nM
AGUAUGUGAGGAUAUUUUUCGUCCGGUAGGAUACUACAGAGAAAGAAGGCACAUGAGGAUCACCCAUGUGAGAC [Eternabot (L1) Solution 55] (Eterna round: R97, puzzle: Exclusion 4)	48.3 nM	–	20.1 nM	–	–	–
GUUGUACAUGAGGAUCACCCAUGUCAGGAUAUCCACCUCAGAAAGUAUACAGGAUUGUGGAGAAGGGACAUUAA [EX1 C.18] (Eterna round: R97, puzzle: Exclusion 1)	56 nM	–	48.5 nM	–	–	–
ACUUGUUGUCCUUGAUAUUACAUGAGGAUCACCCAUGUUAUUGUGAUUAUGAUGUGUAAGUUUGUUGCUCGUCUUAU [JR_STOV1_Sub065] (Eterna round: R97, puzzle: Sensor, turn-off variant 1)	54.3 nM	–	60.4 nM	–	–	–
AGUACUGACACGUUGGUGUUAGUACAAUAAGCUUGUGAUACAUGAGGAUCACCCAUGUCCUCAUAAGCUCGUCUUAU [salish99_TOv2_r2_093] (puzzle: Sensor v3, turn-off variant 2)	–	–	–	26.1 nM	881 nM	21.1 nM
GGAAGGCGAGGAUAUACAAUAAAGAAAGCGAAAGACAUGAAACAUGAGGAUCACCCAUGUAGAAGGCGCGGAGA [AK-MS2ROC-r4-exclusion2-9] (Eterna round: R97, puzzle: Exclusion 2)	16.5 nM	–	13.8 nM	–	–	–
GAGUGCUGAGGAUAUACAUGAGGAUCACCCAUGUGCUUCAGCUAGGAGACUAGCAUUGGUAGAAGGCAGUACUC [LRO-Excl3-01] (puzzle: Exclusion 3)	–	–	–	–	11.1 nM	–
CGUAAGGUAGGAUAUACAUGAGGAUCACCCAUGUCCCACCCGUUACCUAUGACCAUAUGUAGAAGGACCAAUGC [Exy#10] (Eterna round: R97, puzzle: Exclusion 3)	20.7 nM	–	22.7 nM	–	–	–
AAACUCCCAACCACCGGGAACAUGAGGAUCACCCAUGUGGCGUGACUCAUACGGGCUUUUUGUUCGUUUUAUUCACG [Soesesqu] (puzzle: Sensor v3, turn-off variant 1)	–	–	–	69 nM	20.1 nM	72.5 nM
ACAAGCUAAAUCAUAUCUUACAUGAGGAUCACCCAUGUUUUUGCAAUUAUGUUUGGGCUCUUUUGUGCUCGUCUUAU [JR_STOV1_Sub050] (Eterna round: R97, puzzle: Sensor, turn-off variant 1)	16.1 nM	–	17.6 nM	–	–	–
CGGCUACGAUGAGGAUAUACGCACAUGAGGAUCACCCAUGUAAAUCACGGGUAAAGAUCGCCAUCGUAGAAGGCAUAAGGGCCC [Orsole] (Eterna round: R96, puzzle: Exclusion NG 2)	80.3 nM	49.6 nM	80.2 nM	–	–	–
AGUAGAUCUACGCUUGCGUGGAUCUGCAAUGCAAGUGUAACAUGAGGAUCACCCAUGUCCUCAUUUGCUCGUCUUAU [JL turnoff v2 99.03] (puzzle: Sensor v3, turn-off variant 2)	–	–	–	46.8 nM	275 nM	48.8 nM
